± gives the standard deviation of the averaged measurements.
What was measured:
hTERT-HMEC = experiment: percentage of EdU-negative (G0-arrested) nuclei per well, 72 h; higher = more G0 arrest; conditions: reference: sequence is the full UniProt precursor, the tested protein was the secreted form or ectodomain
MCF7 = experiment: as above; conditions: reference: sequence is the full UniProt precursor, the tested protein was the secreted form or ectodomain
[1] = protein concentration 0.03125 µM
[2] = protein concentration 0.3125 µM
[3] = protein concentration 0.0225 µM
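Note: secreted proteins added to cultured cells, EdU pulse at the end, nuclei found by Hoechst imaging, EdU status from nuclear versus surrounding ring intensity ratio, PBS as neutral control.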

Sequence	percentage of EdU-negative (hTERT-HMEC; [1])	percentage of EdU-negative (hTERT-HMEC; [2])	percentage of EdU-negative (MCF7; [1])	percentage of EdU-negative (MCF7; [2])	percentage of EdU-negative (hTERT-HMEC; [3])	percentage of EdU-negative (hTERT-HMEC; protein concentration 0.225 µM)	percentage of EdU-negative (MCF7; [3])	percentage of EdU-negative (MCF7; protein concentration 0.225 µM)
MDRAARCSGASSLPLLLALALGLVILHCVVADGNSTRSPETNGLLCGDPEENCAATTTQSKRKGHFSRCPKQYKHYCIKGRCRFVVAEQTPSCVCDEGYIGARCERVDLFYLRGDRGQILVICLIAVMVVFIILVIGVCTCCHPLRKRRKRKKKEEEMETLGKDITPINEDIEETNIA	5.5 ± 0.31%	5.88 ± 0.75%	24.5 ± 1.2%	23.3 ± 0.42%				
MDRGTLPLAVALLLASCSLSPTSLAETVHCDLQPVGPERGEVTYTTSQVSKGCVAQAPNAILEVHVLFLEFPTGPSQLELTLQASKQNGTWPREVLLVLSVNSSVFLHLQALGIPLHLAYNSSLVTFQEPPGVNTTELPSFPKTQILEWAAERGPITSAAELNDPQSILLRLGQAQGSLSFCMLEASQDMGRTLEWRPRTPALVRGCHLEGVAGHKEAHILRVLPGHSAGPRTVTVKVELSCAPGDLDAVLILQGPPYVSWLIDANHNMQIWTTGEYSFKIFPEKNIRGFKLPDTPQGLLGEARMLNASIVASFVELPLASIVSLHASSCGGRLQTSPAPIQTTPPKDTCSPELLMSLIQTKCADDAMTLVLKKELVAHLKCTITGLTFWDPSCEAEDRGDKFVLRSAYSSCGMQVSASMISNEAVVNILSSSSPQRKKVHCLNMDSLSFQLGLYLSPHFLQASNTIEPGQQSFVQVRVSPSVSEFLLQLDSCHLDLGPEGGTVELIQGRAAKGNCVSLLSPSPEGDPRFSFLLHFYTVPIPKTGTLSCTVALRPKTGSQDQEVHRTVFMRLNIISPDLSGCTSKGLVLPAVLGITFGAFLIGALLTAALWYIYSHTRSPSKREPVVAVAAPASSESSSTNHSIGSTQSTPCSTSSMA					4.75 ± 0.063%	5.33 ± 0.45%	25.3 ± 2.4%	27.3 ± 2.9%
MDRRSRAQQWRRARHNYNDLCPPIGRRAATALLWLSCSIALLRALATSNARAQQRAAAQQRRSFLNAHHRSGAQVFPESPESESDHEHEEADLELSLPECLEYEEEFDYETESETESEIESETDFETEPETAPTTEPETEPEDDRGPVVPKHSTFGQSLTQRLHALKLRSPDASPSRAPPSTQEPQSPREGEELKPEDKDPRDPEESKEPKEEKQRRRCKPKKPTRRDASPESPSKKGPIPIRRH					3.95 ± 0.71%	5.43 ± 0.11%	27.2 ± 2.3%	25.8 ± 4.4%
MDSDETGFEHSGLWVSVLAGLLLGACQAHPIPDSSPLLQFGGQVRQRYLYTDDAQQTEAHLEIREDGTVGGAADQSPESLLQLKALKPGVIQILGVKTSRFLCQRPDGALYGSLHFDPEACSFRELLLEDGYNVYQSEAHGLPLHLPGNKSPHRDPAPRGPARFLPLPGLPPALPEPPGILAPQPPDVGSSDPLSMVGPSQGRSPSYAS [Q9NSA1]	4.59 ± 0.26%	5.63 ± 0.48%	25 ± 1.2%	23.9 ± 1.2%				
MDSSREPTLGRLDAAGFWQVWQRFDADEKGYIEEKELDAFFLHMLMKLGTDDTVMKANLHKVKQQFMTTQDASKDGRIRMKELAGMFLSEDENFLLLFRRENPLDSSVEFMQIWRKYDADSSGFISAAELRNFLRDLFLHHKKAISEAKLEEYTGTMMKIFDRNKDGRLDLNDLARILALQENFLLQFKMDACSTEERKRDFEKIFAYYDVSKTGALEGPEVDGFVKDMMELVQPSISGVDLDKFREILLRHCDVNKDGKIQKSELALCLGLKINP					4.77 ± 0.84%	5.6 ± 0.67%	40.5 ± 16%	25.7 ± 0.85%
MDSYLLMWGLLTFIMVPGCQAELCDDDPPEIPHATFKAMAYKEGTMLNCECKRGFRRIKSGSLYMLCTGNSSHSSWDNQCQCTSSATRNTTKQVTPQPEEQKERKTTEMQSPMQPVDQASLPGHCREPPPWENEATERIYHFVVGQMVYYQCVQGYRALHRGPAESVCKMTHGKTRWTQPQLICTGEMETSQFPGEEKPQASPEGRPESETSCLVTTTDFQIQTEMAATMETSIFTTEYQVAVAGCVFLLISVLLLSGLTWQRRQRKSRRTI					4.53 ± 0.75%	7.02 ± 0.61%	24.6 ± 0.99%	25.4 ± 1.9%
MDTIFLWSLLLLFFGSQASRCSAQKNTEFAVDLYQEVSLSHKDNIIFSPLGITLVLEMVQLGAKGKAQQQIRQTLKQQETSAGEEFFVLKSFFSAISEKKQEFTFNLANALYLQEGFTVKEQYLHGNKEFFQSAIKLVDFQDAKACAEMISTWVERKTDGKIKDMFSGEEFGPLTRLVLVNAIYFKGDWKQKFRKEDTQLINFTKKNGSTVKIPMMKALLRTKYGYFSESSLNYQVLELSYKGDEFSLIIILPAEGMDIEEVEKLITAQQILKWLSEMQEEEVEISLPRFKVEQKVDFKDVLYSLNITEIFSGGCDLSGITDSSEVYVSQVTQKVFFEINEDGSEAATSTGIHIPVIMSLAQSQFIANHPFLFIMKHNPTESILFMGRVTNPDTQEIKGRDLDSL	4.81 ± 0.69%	6.48 ± 0.78%	24 ± 0.53%	24.9 ± 1.8%				
